# Measurements taken from patent publication US12383631 (BRIGHT PEAK THERAPEUTICS, dated 2025).
# T1: IL-18 receptor (IL-18Rα/IL-18Rβ) on cells (HEK-Blue IL18R reporter cells, NK-92, KG-1) (human, UniProt Q13478 19-541; O95256 20-599)
# T1 sequence (looked up) 1: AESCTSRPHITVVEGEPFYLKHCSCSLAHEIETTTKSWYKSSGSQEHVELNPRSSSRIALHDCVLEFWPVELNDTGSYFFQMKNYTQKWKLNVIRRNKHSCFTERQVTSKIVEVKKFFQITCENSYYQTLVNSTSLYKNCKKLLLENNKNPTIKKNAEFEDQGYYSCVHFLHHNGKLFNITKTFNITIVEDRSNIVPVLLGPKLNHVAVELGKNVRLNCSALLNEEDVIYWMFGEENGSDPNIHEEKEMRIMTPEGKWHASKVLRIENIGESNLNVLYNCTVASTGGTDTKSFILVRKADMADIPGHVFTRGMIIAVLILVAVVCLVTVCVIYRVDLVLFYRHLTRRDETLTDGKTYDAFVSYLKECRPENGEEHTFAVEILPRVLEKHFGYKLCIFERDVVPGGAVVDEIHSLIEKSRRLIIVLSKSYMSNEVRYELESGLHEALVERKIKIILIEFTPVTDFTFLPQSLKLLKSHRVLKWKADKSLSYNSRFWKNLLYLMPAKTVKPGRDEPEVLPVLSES
# T1 sequence (looked up) 2: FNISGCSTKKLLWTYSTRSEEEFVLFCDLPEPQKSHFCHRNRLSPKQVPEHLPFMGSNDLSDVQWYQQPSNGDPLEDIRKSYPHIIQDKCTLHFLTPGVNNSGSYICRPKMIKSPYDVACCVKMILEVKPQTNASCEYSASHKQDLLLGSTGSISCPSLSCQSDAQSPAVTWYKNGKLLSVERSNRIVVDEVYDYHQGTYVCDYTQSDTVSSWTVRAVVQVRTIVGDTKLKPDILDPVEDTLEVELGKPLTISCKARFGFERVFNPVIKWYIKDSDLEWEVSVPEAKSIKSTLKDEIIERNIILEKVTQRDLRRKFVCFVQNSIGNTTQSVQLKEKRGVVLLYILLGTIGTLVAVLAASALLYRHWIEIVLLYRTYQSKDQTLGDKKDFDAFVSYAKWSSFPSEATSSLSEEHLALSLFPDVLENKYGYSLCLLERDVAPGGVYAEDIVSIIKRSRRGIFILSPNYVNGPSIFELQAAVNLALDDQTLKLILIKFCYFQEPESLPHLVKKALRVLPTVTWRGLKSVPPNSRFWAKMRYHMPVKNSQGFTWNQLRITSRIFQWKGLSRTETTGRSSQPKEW
# B1: IL-18 polypeptide of SEQ ID NO: 30 (E6K, V11I, C38A, K53A, T63A, C76A, C127A) (ligand)
# chain: YFGKLKSKLSIIRNLNDQVLFIDQGNRPLFEDMTDSDARDNAPRTIFIISMYADSQPRGMAVAISVKCEKISTLSAENKIISFKEMNPPDNIKDTKSDIIFFQRSVPGHDNKMQFESSSYEGYFLAAEKERDLFKLILKKEDELGDRSIMFTVQNED
# notes: also called C086
# B2: human IL-18BP-His (other)
# chain: TPVSQTTTAATASVRSTKDPCPSQPPVFPAAKQCPALEVTWPEVEVPLNGTLSLSCVACSRFPNFSILYWLGNGSFIEHLPGRLWEGSTSRERGSTGTQLCKALVLEQLTPALHSTNFSCVLVDPEQVVQRHVVLAQLWAGLRATLPPTQEALPSSHSSPQQQG
# notes: also called His-tagged human IL-18BP; not shown: His tag
# Assays:
# [1] = target: T1, IL-18 receptor (IL-18Rα/IL-18Rβ) on …; experiment: cell-based or functional assay
# [2] = target: B2; experiment: AlphaLISA of free IL-18BP after incubation with IL-18BP-His
# Description: (§1) Under subdued light, 12.5 µl of pre-mixed Donor beads were added, followed by a short centrifugation step at 150 g, and incubated for 30 minutes at 20° C. under shaking at 750 rpm with no light. AlphaLisa signal was then measured on an Enspire plate reader (Perkin Elmer) using 680 and 615 nm as excitation and emission wavelengths respectively.
# [3] = target: T1, IL-18 receptor (IL-18Rα/IL-18Rβ) on …; experiment: cell-based or functional assay; remark: listed apart in the source
# [4] = target: T1, IL-18 receptor (IL-18Rα/IL-18Rβ) on …; experiment: cell-based or functional assay; remark: listed apart in the source
# [5] = target: T2, Composition B (Atezolizumab/Tecentriq conjugated to IL-18 polypeptide of SEQ ID NO: 30) (human, UniProt P0DOX5 2-449 = IgG part; P0DOX7 1-214; Q14116 37-193, chemical linker to the antibody; site not stated for this composition; chemical linker to IL-18; site not stated for this composition); experiment: AlphaLISA of free IL-18BP after incubation with IL-18BP-His
# T2 construct: immunocytokine
# Description: as §1
"EC50, IFNγ secretion, NK92 cells [1]",Kd [2],"EC50, IFNγ secretion, PD-1 positive KG-1 cells [3]","EC50, IFNγ secretion, parental KG-1 cells [3]","EC50, HEK-Blue IL18R reporter cells [4]",Kd [5],Binder
2 pM,24600 pM,8 pM,12 pM,0.034 pM,,B1
,,,,,6380 pM,B2
